Results on four molecules are retold here after US20120093808A1 (SHIONOGI, published 2012).

Test [1] deals with T1, recombinant full-length PcrV protein (1-294) of Pseudomonas aeruginosa (Pseudomonas aeruginosa, in the biotin-labeled form: PEO-maleimide biotin on the cysteine inserted between histidine tag and start codon).
T1 construct: also called PcrV antigen; recombinant PcrV; not shown: N-terminal histidine tag encoded by the expression vector (pWE30 [sic] / pQE30)
Nature of the test: surface plasmon resonance analysis (BIAcore T-100), culture supernatant, recombinant PcrV.

Test [2] concerns the target T1, recombinant full-length PcrV protein …. Nature of the test: SPR, BIAcore T-100, culture supernatant, recombinant PcrV (FIG. 13). Background: In SPR one partner is held on a chip, and binding of the other changes the refractive index at the surface.
Test [3] has the same target. Nature of the test: surface plasmon resonance analysis, PcrV antigen.
Test [4] has the same target. Nature of the test: SPR, BIAcore T100, antibody captured by anti-mouse antibody on CM5 chip, recombinant PcrV as analyte.
Test [5] addresses T2, truncated PcrV (136-233) (Pseudomonas aeruginosa).
T2 construct: also called truncated PcrV protein
Description: Western blotting: purified recombinant truncated PcrV on SDS-PAGE/PVDF, antibody at 1 ug/mL, labeled anti-mouse IgG, ECL [panel Truncated PcrV (136-233].

The target in test [6] is T1, recombinant full-length PcrV protein …. Nature of the test: surface plasmon resonance analysis, PcrV antigen. This is another data set of the same source.

B1: antibody including the heavy chain of the template humanized antibody and the light chain of the mutant humanized antibody (antibody, V domains shown)
VH: QVQLVQSGAEVKKPGASVKVSCKASGYSFTSYWMHWVRQAPGQGLEWMGEINPSNGRTNYNEKFNTRVTMTRDTSTSTVYMELSSLRSEDTAVYYCARYGNYVVYYTMDYWGQGTTVTVSS
VL: DIQLTQSPTFLSASVGDRVTITCSASTSVSYMEWYQQKPGKAPKILIYTTSKLASGVPSRFSGSGSGTEYTLTISSLQPEDFATYYCHQWRNYPFTFGQGTKLEIK
notes: Human IgG4Pro (S228P) and human Igkappa constant regions; tested as culture supernatant; also called HT/LB
As usually defined, the koff is the first-order rate constant of dissociation. A word on the kon: it is a measure of how fast the partners come together. The term Kd denotes the constant that tells how readily two partners part at equilibrium. For the molecule B1, in test [1], the koff was determined as 0.04 s⁻¹ and the kon turned out to be 62000 M⁻¹ s⁻¹. The Kd in test [2] was determined as 650 nM.

B2: humanized monoclonal antibody h1F3 (antibody, V domains shown)
VH: QVQLVQSGAEVKKPGASVKVSCKASGYSFTSYWMHWVRQAPGQGLEWMGEINPSNGRTNYNEKFNTRVTMTRDTSTSTVYMELSSLRSEDTAVYYCVLYGNYVVYYTMDYWGQGT
VL: DIQLTQSPSFLSASVGDRVTITCSASTSVSYMEWYQQKPGKAPKLLIYTTSKLASGVPSRFSGSGSGTEFTLTISSLQPEDFATYYCHQWRNYPFTFGQGTKLEIKR
notes: also called humanized antibody; humanized PcrV antibody
Take B2: in test [3], the Kd stood at 0.38 nM, the koff was 0.00033 s⁻¹ and the kon worked out at 870000 M⁻¹ s⁻¹.

B3: mouse monoclonal antibody 1F3 (antibody, V domains shown)
VH: QVQLQQPGAELVKPGASVKLSCKASGYSFTSYWMHWVKQRPGQGLEWIGEINPSNGRTNYNEKFNTKATLTVDTSSSTAYMQLSSLTSEDSAVYYCVLYGNYVVYYTMDYWGQGTSVTVSS
VL: QIVLTQSPTIMSASLGEEITLTCSASTSVSYMEWYQQKSGTSPKILIYTTSKLASGVPSRFSGSGSGTFYSLTISSVEAEDAADYYCHQWRNYPFTFGSGTKLEIK
notes: also called m1F3; mouse PcrV antibody
For B3, in test [4], the Kd is 0.37 nM. In addition, the binding result in test [5] was “binds”.

B4: mouse-human chimeric 1F3 antibody (antibody, V domains shown)
VH: B3 VH
VL: B3 VL
notes: Human IgG4Pro (S228P) heavy constant region and human Igkappa constant region; tested as culture supernatant; also called mouse-human chimeric antibody; mouse/human chimeric antibody
For B4, the values for the koff in test [1], in test [3] and in test [6] were 0.00051 s⁻¹, 0.00037 s⁻¹ and 0.00023 s⁻¹, respectively. The kon in test [1] was determined as 2e+06 M⁻¹ s⁻¹; in test [3] it was 740000 M⁻¹ s⁻¹; in test [6] it was 850000 M⁻¹ s⁻¹. In addition, the figures for the Kd in test [2], in test [3] and in test [6] were 0.26 nM, 0.49 nM and 0.27 nM, respectively.
